Entries after “also recorded” stand apart in the source; their conditions may differ. No end group written: not given here.
Key:
Meth A sarcoma [1] = assay: Suppression of growth of established Meth A tumors by peptide in adjuvant plus low dose IL-12; type: in vivo, BALB/C mice; conditions: for suppression of tumor growth: peptide in QS-21 or QS-21 alone at days 7 and 14 after Meth A challenge, IL-12 1 ng, 4 times a week for two weeks from day 7
Method: As with the prior experiments, female BALB/C mice were injected with 5×10^4 Meth A cells at day 0. The mice received two injections of the mutant peptide in QS-21, the wild type peptide in QS-21, or QS-21 alone in the same manner described in Example 3, at weekly intervals. At day 7, the mice began receiving injections of 1 ng of IL-12 (4 times a week, for two weeks).
FIG. 4A resulted from QS-21 plus the mutant peptide followed by injections of IL-12. FIG. 4B resulted from QS-21 plus peptide, followed by injections with IL-12. FIG. 4C resulted from QS-21 alone followed by injections of IL-12.

[2] = system: P1-HTR cells pulsed with peptide; assay: Generation of peptide-specific CTLs after immunization with peptide, adjuvant and IL-12 (51Cr release assay); type: cell-based, BALB/C mice
Meth A sarcoma [3] = assay: Anti-tumor effect of IL-12 on established Meth A sarcoma in mice (tumor diameter); type: in vivo, BALB/C mice
Method: The in vivo model employed used the transplantable, methylcholanthrene-induced sarcoma “Meth A.” This is a sarcoma of BALB/C (murine) origin, passaged as an ascitic tumor. See Old, et al, Ann. N.Y. Acad. Sci 101:80-106 (1962), incorporated by reference in its entirety.
BALB/C female mice were injected intradermally with 5×10^4 Meth A cells on day 0. Seven days later, a treatment regime began, wherein the animals received doses of IL-12, 4 times a week. Control animals received no IL-12. The remaining animals received 1 ng, 10 ng, 100 ng, or 500 ng of IL-12 in each dose, administered by intraperitoneal injection.
The effect of the IL-12 on the induced tumors was observed by measuring the diameter of the tumors at the end of the treatment period. FIGS. 1A, 1B, 1C, 1D and 1E show this. The panels show results with doses of 0 ng, 1 ng, 10 ng, 100 ng, and 500 ng, respectively.
The effect of the IL-12 was abolished by administering monoclonal antibodies against CD8 molecules, but was not affected via administration of anti-CD4 mAbs.

Meth A sarcoma [4] = assay: Timing of IL-12 administration relative to Meth A challenge; type: in vivo, BALB/C mice; conditions: 100 ng IL-12 at day -14, day 0 or day 7 relative to Meth A challenge
Method: The importance of timing in the administration of IL-12 was then studied. In these experiments, female BALB/C mice were again injected with 5×10^4 Meth A cells, as in Example 1 (day 0). Injections of 100 ng IL-12 were administered at day “−14” (i.e., 14 days before challenge with the tumor cells), day 0, or day 7 (i.e., 7 days after challenge) as in Example 1.

Molecule	suppression of tumor growth (Meth A sarcoma [1])	CTLs elicited following immunization ([2]; 100 μg peptide twice at weekly intervals, regardless of the adjuvant (QS-21 or IFA) or treatment with IL-12)	stimulation of an immune response when used alone (Meth A sarcoma [1]; each component alone, summary of the examples)	anti-tumor effect (diameter of the tumors at the end of the treatment period) (Meth A sarcoma [3]; IL-12 1, 10, 100 or 500 ng i.p., 4 times a week from day 7 after 5×10^4 Meth A cells intradermally)	effect of the IL-12 on tumors when anti-CD4 mAbs are administered (Meth A sarcoma [3]; with anti-CD4 mAbs)	effect of the IL-12 on tumors when monoclonal antibodies against CD8 are administered (Meth A sarcoma [3]; with anti-CD8 mAbs)	effectiveness by timing of administration (Meth A sarcoma [4])	optimal dose of IL-12 for the generation of CTLs ([2]; IL-12 0.1, 1, 10 or 100 ng, four times over two weeks, with peptide in QS-21 or IFA)	effect of higher doses of IL-12 on generation of CTLs ([2]; IL-12 doses above 1 ng, with peptide in QS-21 or IFA)
KYMCNSSCM (cysteine pairing not given here) [wild type peptide, wild type counterpart of peptide 234 CM]	did not lead to suppression of tumor growth	No CTLs were elicited	–	–	–	–	–	–	–
IL-12: the cytokine interleukin-12 (protein, UniProt P29459 23-219; P29460 23-328, looked up) Interleukin-12 subunit alpha: RNLPVATPDPGMFPCLHHSQNLLRAVSNMLQKARQTLEFYPCTSEEIDHEDITKDKTSTVEACLPLELTKNESCLNSRETSFITNGSCLASRKTSFMMALCLSSIYEDLKMYQVEFKTMNAKLLMDPKRQIFLDQNMLAVIDELMQALNFNSETVPQKSSLEEPDFYKTKIKLCILLHAFRIRAVTIDRVMSYLNAS Interleukin-12 subunit beta: IWELKKDVYVVELDWYPDAPGEMVVLTCDTPEEDGITWTLDQSSEVLGSGKTLTIQVKEFGDAGQYTCHKGGEVLSHSLLLLHKKEDGIWSTDILKDQKEPKNKTFLRCEAKNYSGRFTCWWLTTISTDLTFSVKSSRGSSDPQGVTCGAATLSAERVRGDNKEYEYSVECQEDSACPAAEESLPIEVMVDAVHKLKYENYTSSFFIRDIIKPDPPKNLQLKPLKNSRQVEVSWEYPDTWSTPHSYFSLTFCVQVQGKSKREKKDRVFTDKTSATVICRKNASISVRAQDRYYSSSWSEWASVPCS	strong suppression of tumor growth; also recorded: growth suppressive effect	–	none	dose dependent anti-tumor effect	not affected	abolished	most effective after the tumor had become established; also recorded: particularly effective after tumors have already formed	1 ng	suppressive effect
